The subject of assay [1] is 4T1. Kind of assay: 4T1 xenograft in nude mice, cisplatin with 10B6 or IgG. Type of assay: in vivo. Particulars: 28-days; cisplatin 1 mg/kg every 5 days, 10B6 100 μg/mouse once a week. Here is the method:
FIGS. 22A-22E. Neutralizing endotrophin activities with monoclonal antibodies sensitizes tumors to cisplatin treatment. FIG. 22A. Pieces of tumors from PyMT mice were implanted into wild-type hosts. Tumor-bearing mice were given cisplatin (1 mg/kg, ip., every 5 days) or PBS, combined with either TZD (20 mg/kg) or anti-endotrophin monoclonal antibodies (100 μg/mouse, once a week) for tumor progression. Tumor volumes were determined by caliper measurements. Data represent mean±SD (n=5/group). *p<0.05, **p<0.01, ***p<0.001 vs. Cisplatin by 2-way ANOVA. FIGS. 22B-22D. 4T1 (0.5×10^6/mouse) cells were xenografted in nude mice and monitored tumor growth (FIG. 22B) and metastasis (FIG. 22C). […] Tumor volumes were determined by caliper measurements. […] Metastatic burden was determined by measuring metastatic lesion area in lung tissues with H&E stains. Quantified data represent mean±SD (n=5/group). **p=0.0007 and *p=0.0209 vs. CIS/10B6 by unpaired student t-test. mRNA levels for EMT markers such as vimentin, snail, slug, twist1, twist2 and S100S4 were determined by RT-qPCR (FIG. 22D). […]
As a last step, therapeutic potential of a previously described endotrophin neutralizing antibody (clone 10B6) on cisplatin sensitivity was determined. […] Tumor regression was monitored for 2-months post implantation. […]

The target of assay [2] is T1, ETP (Mus musculus, UniProt E9PWQ3).
T1 sequence (E9PWQ3 with tags, fused parts or gaps limits assumed): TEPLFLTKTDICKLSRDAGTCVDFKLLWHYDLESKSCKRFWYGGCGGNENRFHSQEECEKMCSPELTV
The assay can be described thus: in vivo Matrigel bioassay (stromal cell recruitment into plugs). The settings on record: ETP 100 ng/plug, antibody 20 μg/plug, 2 days after implantation. Here is the method: FIGS. 7A-7I: ETP acts as a chemokine augmenting tumor growth. […] Tumor volume was determined 1 month after implantation (representative images). Data represent mean±SEM (n=5 per group). ***P<0.001, unpaired t test. (FIG. 7B) In vivo Matrigel bioassay. Matrigel (50 μl) was mixed with ETP (100 ng/plug) or PBS and implanted into WT mice in the presence of IgG, 1D11, or 10B6 (20 μg/plug). 2 days after implantation, plugs were excised and stained for FIG. 7H & FIG. 7E. Scale bars: 100 μm. (FIGS. 7C-7H) Cancer cells were plated in the bottom chamber 1 day prior to seeding MS-1 cells (5×10^5 cells/well) and macrophages (1×10^5 cells/well) atop the membrane chamber in Transwell and incubated for 18-24 hours (FIG. 7C). (FIGS. 7D, 7E, 7F, 7G) Representative images of multiple independent experiments. Scale bars: 100 μm. (FIG. 7H) Quantitation (mean±SEM; n=3 per group). ***P<0.001, […], unpaired t test. (FIG. 7I) MS-1 migration assay. MS-1 cells (5×10^5 cells/well) were plated atop the chamber in Transwell and incubated for 24 hours. Chemotaxis was set up by following cell migration from DMEM/serum-free to DMEM/2% FBS/PBS or DMEM/2% FBS/ETP protein (1 μg/well). Images are representative of multiple independent experiments. Data represent mean±SEM (n=3 per group). ***P=0.008, unpaired t test. Scale bars: 100 μm.

In the case of `N.N.[Cl][Pt][Cl]` [cisplatin, cis-diammine-dichloro-platinum], in assay [1], the “primary tumor growth of 4T1” value is “barely inhibited”.

B1: 10B6: rat anti-mouse endotrophin monoclonal antibody; light chain variable SEQ ID NO: 2, heavy chain variable SEQ ID NO: 4 (antibody, V domains shown)
VH: QVQLQQSGPELAKPGSSVKISCKASGYTFTSYEMHWIKQRPGQGLEWIGYIYPESGSTGYNEKFKGKATLTVDKSSPTAYMQLSSLTPDNSAVYFCTRGLRVLGYVMDVWGHGTSVTVSS
VL: DVQLTQSPSFLSASVGDRVTINCKASQNINKYLNWYQQKLGEAPKRLIYNTNNLQTGIPSRFSGSASGTDYTLTISSLHPEDFATYFCLQHSSLYTFGAGTKLELK
For the molecule B1, the “chemokine activity of ETP (stromal cell recruitment into Matrigel plugs)” value in assay [2] is “completely blocked”. In addition, the “primary tumor growth of 4T1” value in assay [1] was “barely inhibited”.

These data come from US10975142B2, “Endotrophin neutralization and use thereof” (THE BOARD OF REGENTS OF THE UNIVERSITY OF TEXAS SYSTEM, priority 2013, dated 2021).
